[ ]: non-standard residue; d: D form. The star is where a group is joined. FITC = O=C1OC2(c3ccc(O)cc3Oc3cc(O)ccc32)c2ccc(NC(=S)*)cc21; Abu = CC[C@H](N)C(=O)O; Ahx = NCCCCCC(=O)O
How the values were obtained:
HCV NS3•4A = biological target: T1, HCV NS3•4A (Hepatitis C virus genotype 1a, UniProt P27958); experiment: HCV NS3 peptide cleavage assay with full-length NS3•4A (determination of Km and Vmax); type: biochemical, HCV sub-type strain 1a; conditions: enzyme NS3•4A; peptide substrate varied 3 μM to 200 μM; 25 μM NS4A peptide; reverse phase HPLC
T1 construct: hexa-histidine (N); made in house; host or cells: Sf9 insect cells (recombinant baculovirus, pVL1392-His-NS3•4A)
Protocol: (§1) This assay follows the cleavage of a peptide substrate by full-length hepatitis C viral protein NS3•4A. One of three peptide substrates based on the NS5A/NS5B cleavage site for genotype 1a HCV, shown in table 3 below, is used to measure enzyme activity. All substrate stock solutions (25 mM) were prepared in DMSO containing 0.2 M DTT and stored at −20° C. A synthetic peptide cofactor (NS4A Peptide) was used to supplement NS4A. The hydrolysis reaction was performed in a 96-well microtiter plate format using 100 ηM to 125 ηM HCV NS3•4A in buffer containing 50 mM HEPES pH 7.8, 100 mM NaCl, 20% glycerol, 5 mM DTT and 25 μM NS4A peptide. The final DMSO concentration was no greater than 2% v/v. Reactions using NS5AB or NS5AB-EDANS as substrate were quenched by the addition of 10% trifluoroacetic acid (TFA) to yield a final TFA concentration of 2.5%. Reactions using FITC-NS5AB-1 as substrate were quenched by the addition of 0.4 M formic acid to yield a final concentration of 0.08 M acid.
(§2) Enzymatic activity was assessed by separation of substrate and products using reverse phase HPLC. The instrument used was an Agilent 1100 with a G1322A degasser, either a G1312A binary pump or a G1311A quaternary pump, a G1313A autosampler, a G1316A column thermostated chamber, a G1321A fluorescence detector and a G1315A diode array detector. The column thermostat was at 40° C. […] The C-terminal product peak (NH2-SMSY-COOH) was quantified using the absorbance data collected at 210 ηm. […] The C-terminal product peak (NH2-SMSYT-Asp(EDANS)-KKK-COOH) was quantified using the fluorescence data collected at 350 ηm excitation/490 ηm emission. […] The N-terminal product peak (FITC-Ahx-EDVV-(alpha)Abu-C-COOH) was quantified using the fluorescence data collected at 440 ηm excitation/520 ηm emission. Alternatively, the ratio of N-terminal product to unreacted FITC-NS5AB-1 substrate was determined using a Caliper LabChip 3000 with detection at 488 ηm excitation/530 ηm emission, using a chip buffer of 100 mM Tris pH 7.0, 10 mM EDTA, 0.01% (v/v) Brij-35, and 0.1% (v/v) CR-3. […]

[1] = system: CC[C@H](NC(=O)[C@@H](NC(=O)[C@@H](NC(=O)[C@H](CC(=O)O)NC(=O)[C@@H](N)CCC(=O)O)C(C)C)C(C)C)C(=O)N[C@@H](CS)C(=O)N[C@@H](CO)C(=O)N[C@@H](CCSC)C(=O)N[C@@H](CO)C(=O)N[C@@H](Cc1ccc(O)cc1)C(=O)O; experiment: HCV NS3 protease domain peptide cleavage assay (determination of Km and Vmax); type: biochemical; conditions: other: enzyme NS3 Protease Domain; peptide substrate varied 3 μM to 200 μM; 25 μM KK4A cofactor; reverse phase HPLC; pH 7.8; 40.0 °C
Protocol: This assay is a modification of that described by Landro, et al. (Landro J A, Raybuck S A, Luong Y C, O'Malley E T, Harbeson S L, Morgenstern K A, Rao G and Livingston D L. Biochemistry 1997, 36, 9340-9348), and uses a peptide substrate (NS5AB), based on the NS5A/NS5B cleavage site for genotype 1a HCV. The substrate stock solution (25 mM) was prepared in DMSO containing 0.2 M DTT and stored at −20° C. A synthetic peptide cofactor (KK4A) was used as a substitute for the central core region of NS4A. The reaction was performed in a 96-well microtiter plate format using 25 ηM to 50 ηM HCV NS3 protease domain in buffer containing 50 mM HEPES pH 7.8, 100 mM NaCl, 20% glycerol, 5 mM DTT and 25 μM KK4A. The final DMSO concentration was no greater than 2% v/v. […]
The SMSY product was separated from substrate and KK4A using a microbore separation method. […] The SMSY product peak was quantified using the data collected at […].
To determine the kinetic parameters Km and Vmax, the HCV NS3 protease domain or HCV NS3•4A was reacted with peptide substrate under the assay conditions described above. […] The ratio of the product peak area (as determined by reverse phase HPLC) to the reaction time yielded a rate of enzyme catalyzed hydrolysis. […] The value of kcat was determined from Vmax using the nominal protease concentration and a fully cleaved substrate peptide as an instrument calibration standard.

[2] = system: CC[C@H](NC(=O)[C@@H](NC(=O)[C@@H](NC(=O)[C@H](CC(=O)O)NC(=O)[C@@H](N)CCC(=O)O)C(C)C)C(C)C)C(=O)N[C@@H](CS)C(=O)N[C@@H](CO)C(=O)N[C@@H](CCSC)C(=O)N[C@@H](CO)C(=O)N[C@@H](Cc1ccc(O)cc1)C(=O)O; experiment: HCV NS3 peptide cleavage assay with full-length NS3•4A (determination of Km and Vmax); type: biochemical, HCV sub-type strain 1a; conditions: other: enzyme NS3•4A; peptide substrate varied 3 μM to 200 μM; 25 μM NS4A peptide; reverse phase HPLC; 40.0 °C
Protocol: as §1, §2

With “FITC-Ahx-EDVV-(alpha)Abu-CSMSYTKK-NH2 ({FITC}-[Ahx]EDVV[Abu]CSMSYTKK-NH2) [FITC-NS5AB-1, FITC-labelled peptide substrate based on the NS5A/NS5B cleavage site for genotype 1a HCV]” as the substance, how does the Km (HCV NS3•4A) read?
The Km was 15 µM.

For “HCV NS3 protease domain (Hepatitis C virus (isolate Con1))”, which Km [1] is on record?
Its Km is 25 µM.

And the kcat/Km [1]?
Its kcat/Km is 30000 M⁻¹ s⁻¹.

Which results are given for “HCV NS3•4A (Hepatitis C virus (isolate H77))”?
Km [2]: 30 µM; kcat/Km [2]: 7900 M⁻¹ s⁻¹

From patent US8501426B2, “Method for identifying protease inhibitors” (priority 2006, dated 2013)
